Assays:
[1] = biological target: EssB-N, N-terminal cytoplasmic fragment of EssB (residues 12-226) (S. aureus subsp. aureus) (UniProt Q2G185); assay: native gel or EMSA
[2] = biological target: EssBΔC, EssB truncated by 43 C-terminal residues, detergent-solubilised (S. aureus subsp. aureus) (UniProt Q2G185); assay: SEC
native gel or EMSA = biological target: the molecule itself; assay: native gel or EMSA

EssB-N, N-terminal cytoplasmic fragment of EssB (residues 12-226) (from UniProt Q2G185 12-226) (domain or fragment)
stoichiometry N [1]: 2

EssBΔC, EssB truncated by 43 C-terminal residues, detergent-solubilised (from UniProt Q2G185 1-400) (domain or fragment)
stoichiometry N [2]: 2

B1: EssB-C, C-terminal fragment of EssB (residues 257-444) (domain or fragment, S. aureus subsp. aureus)
chain: GASERIEKGYQAFVKDDYTQVLNTYDDLDGKKLDKEALYIYAKSYIQTNKQGLEKDKKENLLNNVTPNSNKDYLLYWMELGQGHLDEAINIATYLDDNDITKLALINKLNEIKNNGDLSNDKRSEETKKYNDKLQDILDKEKQVKDEKAKSEEEKAKAKDEKLKQQEENEKKQKEQAQKDKEKRQEAERKK
stoichiometry N (native gel or EMSA): 2

B2: Full-length EssB (S. aureus), detergent-solubilised (natural protein, S. aureus subsp. aureus)
chain: GASMVKNHNPKNEMQDMLTPLDAEEAAKTKLRLDMREIPKSSIKPEHFHLMYLLEQHSPYFIDAELTELRDSFQIHYDINDNHTPFDNIKSFTKNEKLRYLLNIKNLEEVNRTRYTFVLAPDELFFTRDGLPIAKTRGLQNVVDPLPVSEAEFLTRYKALVICAFNEKQSFDALVEGNLELHKGTPFETKVIEAATLDLLTAFLDEQYQKQEQDYSQNYAYVRKVGHTVFKWVAIGMTTLSVLLIAFLAFLYFSVMKHNERIEKGYQAFVKDDYTQVLNTYDDLDGKKLDKEALYIYAKSYIQTNKQGLEKDKKENLLNNVTPNSNKDYLLYWMELGQGHLDEAINIATYLDDNDITKLALINKLNEIKNNGDLSNDKRSEETKKYNDKLQDILDKEKQVKDEKAKSEEEKAKAKDEKLKQQEENEKKQKEQAQKDKEKRQEAERKK
stoichiometry N (native gel or EMSA): 2

Source: PMC3526858 (Biochemical Journal, 2012)
